Experiment [1] addresses T1, C−反応性タンパク(CRP), ヒトCRP抗原 (human, UniProt P02741 19-224).
T1 sequence (looked up): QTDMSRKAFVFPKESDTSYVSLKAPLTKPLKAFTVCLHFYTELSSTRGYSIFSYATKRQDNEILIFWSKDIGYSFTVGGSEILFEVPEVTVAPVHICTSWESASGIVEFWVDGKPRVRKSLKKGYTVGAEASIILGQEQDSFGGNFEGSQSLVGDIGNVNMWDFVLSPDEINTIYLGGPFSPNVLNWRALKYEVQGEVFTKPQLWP
In words: phage ELISA on plate-coated CRP, detected with HRP/anti-M13.

Experiment [2] addresses T1, C−反応性タンパク(CRP), ヒトCRP抗原. Briefly: ELISA of His-tag purified scFv on CRP.
The next experiment deals with T2, Protein A (Staphylococcus aureus, UniProt P38507 37-477).
T2 construct: also called プロテインA; Staphylococcus aureusが産生するProtein A
Briefly: immunochromatography test strip, His20 as capture and as gold-colloid label; samples of Protein A and S. aureus cell suspensions.

B1: 陽性クローン株No.40のファージ抗体 (scFv No.40 displayed on M13 phage) (scFv)
scFv: MAQVKLQQSGAEVVKPGASVKLSCKASGYTFIFYHIYWVKQRPGQGLEWIGGINPRSGGTNLNEKFKSKATLTVDKSSSTAYMQLNGLTSEDSAFYYCTRSGTTYDYALDYWGQGTTVTVSSGGGGSGGGGSGGGGSDIELTQSPAIMAASLGQKVTMTCSASSSMSSSYLHWYQQKSGASPKPLIHRTSTLASGVPARFSGSGSGTSYSLTISSVEAEDDATYYCQQWSGYPLTFGGGTKLEIKRAAA
notes: not shown: C-terminal fusion to the phage coat protein from phagemid pCANTAB5E; not spelled out
As for B1, in the experiment with C−反応性タンパク(CRP), ヒトCRP抗原 [1], the binding result is on record as “binds”.

B2: 抗CRPscFv抗体No.40 (His-tagged scFv, His40) (scFv)
scFv: MAQVKLQQSGAEVVKPGASVKLSCKASGYTFIFYHIYWVKQRPGQGLEWIGGINPRSGGTNLNEKFKSKATLTVDKSSSTAYMQLNGLTSEDSAFYYCTRSGTTYDYALDYWGQGTTVTVSSGGGGSGGGGSGGGGSDIELTQSPAIMAASLGQKVTMTCSASSSMSSSYLHWYQQKSGASPKPLIHRTSTLASGVPARFSGSGSGTSYSLTISSVEAEDDATYYCQQWSGYPLTFGGGTKLEIKRAAA
notes: Mouse scFv (VH-(G4S)3 linker-VL) from an immune phage library, expressed in E. coli HB2151 and purified by the His tag; also called No.40抗体; not shown: C-terminal 6x histidine tag added by a standard method
Regarding B2, in the experiment with C−反応性タンパク(CRP), ヒトCRP抗原 [2], the binding result is listed as “binds”.

B3: 陽性クローン株No.20のファージ抗体 (scFv No.20 displayed on M13 phage) (scFv)
scFv: MAQVKLPESGAELVKPGASVKLSCTPSGFNIKDTYIHWVRQRPGQGLEWIGRIDPANGHTRYAPKFQGKATLTADASSNTAYLHLSSLTSEDTAVYYCPRIVWYSGGYAMDYWGQGTTVTVSSGGGGSGGGGSGGGGSDIELTQSPSSMYASLGERVTITCKASQDINSYLSWFQQKPGKSPKTLIYRANRLVDGVPSRFSGSGSGQDYSLTISSLKYEDMGIYYCLQYDEFPLTFGGGTKLEIKRAA
notes: as for B1
Turning to B3, the binding result in the experiment with C−反応性タンパク(CRP), ヒトCRP抗原 [1] was “binds”.

B4: 抗CRPscFv抗体No.20 (His-tagged scFv, His20) (scFv)
scFv: MAQVKLPESGAELVKPGASVKLSCTPSGFNIKDTYIHWVRQRPGQGLEWIGRIDPANGHTRYAPKFQGKATLTADASSNTAYLHLSSLTSEDTAVYYCPRIVWYSGGYAMDYWGQGTTVTVSSGGGGSGGGGSGGGGSDIELTQSPSSMYASLGERVTITCKASQDINSYLSWFQQKPGKSPKTLIYRANRLVDGVPSRFSGSGSGQDYSLTISSLKYEDMGIYYCLQYDEFPLTFGGGTKLEIKRAA
notes: Mouse scFv (VH-(G4S)3 linker-VL) from an immune phage library, expressed in E. coli HB2151 and purified by the His tag; also called No.20抗体; His20 scFv抗体; not shown: C-terminal 6x histidine tag added by a standard method
As to B4, in the experiment with Protein A, the binding result is “no binding”.

The values above are taken from patent JP2008058208A (dated 2008).
